# Assay results taken from article PMC13470446, “Microtubule-dependent regulation of chromatin dynamics by the Smc5/6 complex” (iScience, 2026).
# B1: Smc5-2KE hinge domain (residues 215–885, K624E K631E) (domain or fragment, S. cerevisiae, UniProt Q08204 215-885, looked up)
# chain: LRELQGNEQSLQKDLDFKKAKIVHLRQESDKLRKSVESLRDFQNKKGEIELHSQLLPYVKVKDHKEKLNIYKEEYERAKANLRAILKDKKPFANTKKTLENQVEELTEKCSLKTDEFLKAKEKINEIFEKLNTIRDEVIKKKNQNEYYRGRTKKLQATIISTKEDFLRSQEILAQTHLPEKSVFEDIDIKRKEIINKEGEIRDLISEIDAKANAINHEMRSIQRQAESKTKSLTTTDKIGILNQDQDLKEVRDAVLMVREHPEMKDKILEPPIMTVSAINAQFAAYLAQCVDYNTSKALTVVDSDSYKLFANPILDKFKVNLRELSSADTTPPVPAETVRDLGFEGYLSDFITGDKRVMKMLCQTSKIHTIPVSRRELTPAQIKKLITPRPNGKILFKRIIHGNRLVDIEQSAYGSEQVFPTDVSIKQTNFYQGSIMSNEQKIRIENEIINLKNEYNDRKSTLDALSNQKSGYRHELSELASKNDDINREAHQLNEIRKKYTMRKSTIETLREKLDQLKREARKDVSQKIKDIDDQIQQLLLKQRHLLSKMASSMKSLKNCQKELISTQILQFEAQNMDVSMNDVIGFFNEREADLKSQYEDKKKFVKEMRDTPEFQSWMREIRSYDQDTKEKLNKVAEKYEEEGNFNLSFVQDVLDKLESEIAMVNHDES
# notes: Smc5, S. cerevisiae, hinge domain construct, residues 215-885, with K624E and K631E; source: purified
# Molecular target: microtubule polymers (Polymerised alpha/beta-tubulin heterodimers (one repeat given). Source is not printed (assay 'as previously described' in a cited paper); commercial mammalian brain tubulin is assumed, porcine taken a)
# Sequence (chain, as listed by the source, chain 1 of 2): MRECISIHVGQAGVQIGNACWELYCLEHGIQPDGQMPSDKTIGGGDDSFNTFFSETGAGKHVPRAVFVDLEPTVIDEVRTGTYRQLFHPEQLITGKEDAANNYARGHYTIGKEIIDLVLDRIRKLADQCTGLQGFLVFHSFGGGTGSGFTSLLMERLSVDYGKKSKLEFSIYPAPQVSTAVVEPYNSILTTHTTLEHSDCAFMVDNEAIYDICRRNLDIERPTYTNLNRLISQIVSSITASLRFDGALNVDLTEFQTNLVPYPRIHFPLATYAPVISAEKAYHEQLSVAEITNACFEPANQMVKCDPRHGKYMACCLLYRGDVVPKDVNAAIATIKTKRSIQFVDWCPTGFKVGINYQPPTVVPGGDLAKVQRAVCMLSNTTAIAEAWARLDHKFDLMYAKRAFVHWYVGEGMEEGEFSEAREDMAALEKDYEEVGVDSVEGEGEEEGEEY
# Sequence (chain, as listed by the source, chain 2 of 2): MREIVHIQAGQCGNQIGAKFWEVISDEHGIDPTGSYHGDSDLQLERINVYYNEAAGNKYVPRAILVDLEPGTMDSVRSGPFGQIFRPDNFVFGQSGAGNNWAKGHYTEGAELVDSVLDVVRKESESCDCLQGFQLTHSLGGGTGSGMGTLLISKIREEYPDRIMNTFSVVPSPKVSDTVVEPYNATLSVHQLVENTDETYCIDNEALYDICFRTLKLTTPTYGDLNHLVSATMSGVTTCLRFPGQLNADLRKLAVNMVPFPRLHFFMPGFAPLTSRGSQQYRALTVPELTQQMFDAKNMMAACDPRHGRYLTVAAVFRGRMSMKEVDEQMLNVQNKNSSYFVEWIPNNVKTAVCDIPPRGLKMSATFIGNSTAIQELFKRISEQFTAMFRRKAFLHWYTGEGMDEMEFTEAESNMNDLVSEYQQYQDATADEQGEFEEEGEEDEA
# Assay: co-sedimentation; microtubule pelleting assay; fraction of microtubule-bound Smc5 plotted against microtubule concentration, Kd by curve fitting to a hyperbola; 3 independent experiments
# Conditions: both partners purified
binder,measurement,value
B1,fold reduction in binding affinity against wild-type Smc5,3 fold
